In patent EP4725966A1, “HUMAN EPIDERMAL GROWTH FACTOR 3 ANTIBODY, PREPARATION METHOD THEREFOR, AND USE THEREOF” (priority 2023, dated 2024):

Experiments:
[1] = target: cynomolgus HER3-ECD-His (cynomolgus monkey) (UniProt G7PIG5); experiment: ELISA on coated Cyno HER3
[2] = target: human HER3 on cells (human) (UniProt P21860); experiment: FACS on Human HER3-CHO cells
[3] = target: human HER3-ECD-His (human) (UniProt P21860); experiment: ELISA on coated human HER3

Chain of cynomolgus HER3-ECD-His (cynomolgus monkey) (G7PIG5 entry or part of it): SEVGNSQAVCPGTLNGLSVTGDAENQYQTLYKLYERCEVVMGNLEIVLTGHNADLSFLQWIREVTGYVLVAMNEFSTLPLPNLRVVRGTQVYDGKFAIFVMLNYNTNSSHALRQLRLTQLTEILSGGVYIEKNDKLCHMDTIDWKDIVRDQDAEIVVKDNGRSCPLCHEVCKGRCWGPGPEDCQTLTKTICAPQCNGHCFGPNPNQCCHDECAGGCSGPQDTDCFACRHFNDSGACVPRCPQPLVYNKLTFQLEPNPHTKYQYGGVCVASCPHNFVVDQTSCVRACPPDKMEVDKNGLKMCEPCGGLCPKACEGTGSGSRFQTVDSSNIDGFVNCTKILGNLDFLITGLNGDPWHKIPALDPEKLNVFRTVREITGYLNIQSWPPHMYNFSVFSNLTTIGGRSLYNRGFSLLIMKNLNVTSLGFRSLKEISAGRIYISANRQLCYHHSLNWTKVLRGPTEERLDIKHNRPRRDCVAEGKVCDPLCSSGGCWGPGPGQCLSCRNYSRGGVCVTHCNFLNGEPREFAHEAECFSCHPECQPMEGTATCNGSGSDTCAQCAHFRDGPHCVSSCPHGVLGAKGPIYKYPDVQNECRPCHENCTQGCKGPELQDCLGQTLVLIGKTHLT

Row | Binder | OD450 [1] [OD450] | MFI [2] [MFI] | OD450 [3] [OD450]
1 | mHE1 (antibody, V domains shown) VH: EVKLQESGPGLVKPSQSLSLTCSVTGYSITSGYYWNWIRQFPGNKLEWMGYISYDGSNNYNPSLKNRISITRDTSKNQFFLNLNSVTTEDTATYYCARVDWDGDAMDYWGQGTSVTVSS VL: DIVLTQSPASLAVSLGQRATISCRASESVDNYGIRLMHWYQQKSGQPPKLLIHRASNLESGIPARFSGSGSRTDFTLTINPVETDDVATYYCQQSNKDPFTFGSGTKLEIKR | 1.77 | 173 | 1.86
2 | mHE5 (antibody, V domains shown) VH: EVQLQESGPGLVKPSQSLSLTCSVTGYSITSGYYWNWIRQFPGNKLEWMGYISYDGSNNYNPSLKNRISITRDTSKNQFFLKLNSVTTEDTATYYCASYDYDGDWFAYWGQGTLVTVSA VL: DIVLTQSPASLAVSLGQRATISCRASESVDHYGSSFMHWYQQKPGQPPKLLIYRASNPESGIPARFSGSGSRTDFTLTINPVETDDVATYYCQQSNKDPPTFGGGTKLEIKR | 1.82 | 224 | 1.9
3 | mHE6 (antibody, V domains shown) VH: EVQLQQSGPDLVKPGTSVKMSCKASGYTFTDYYMHWVRQSHGKSLEWIGYINPNNGDAIYNQKFKGKATLTVNKSSTTAYMALRSLTSEDSAVYFCATYDYGGDFYFDVWGTGTTVTVSS VL: DIELTQSPALMSASPGEKVTMTCSASSSVSYMYWYQQKPRSSPKPWIYLTSNLASGVPARFSGSGSGTSYSLTISSMEAEDAATYYCQQWSRNPLTFGAGTKLELKR | 1.51 | 205 | 2.12
4 | mHE2 (antibody, V domains shown) VH: EVKLQESGPGLVKPSQSLSLTCSVTGYSITSGYYWNWIRQFPGNKLEWMGYISYDGSNNYNPSLKNRISITRDTSKNQFFLKLNSVTTEDTATYYCARMDWDGDAMDYWGQGTSVTVSS VL: DIVLTQSPASLAVSLGQRATISCRASESVDNYGISLMHWYQQKPGQPPKLLIYRASNLESGIPARFSGSGSRTDFTLTINPVETDDVATYYCQQSNKDPPTFGAGTKLELKR | 1.77 | 195 | 1.96
5 | mHE4 (antibody, V domains shown) VH: EVQLVESGGGLVKPGGSLKLSCAASGFTFSSYVMSWVRQTPEKRLEWVATISDGDSSTYYPDNVKGRFTISRDNAKNNLFLQMSHLKSEDTAMYFCARDKGHGYDEGAFVYWGQGTLVTVSA VL: DIQMTQSPASLSASVEETVTITCRASENIYSYLAWYQQKQGKSPQLLVYNAKTLAEGVPSRFSGSGSGTEFSLKINSLQPEDFGSYYCQNHYGTPYTFGGGTKLEIKQ | 1.87 | 199 | 2.07
